Tests used:
[1] = target: T1, human PD-1 (ACRO, His tag) (human, UniProt Q15116 25-167); assay: bridging ELISA: human PD-1-His coated at 1 ug/mL, antibody, then biotinylated human VEGF at 50 ng/ml and streptavidin-HRP, OD450
T1 construct: Bought protein; not shown: His tag
Experimental: The order of the binding to VEGF and PD-1 was changed for dual ELISA detection. A 96-well ELISA plate was coated with 1 μg/mL human PD-1 (ACRO, His tag) overnight, washed and blocked for 1 hour. […] TMB solution was added for color development, and the OD450 nm absorbance value was read on a microplate reader.

[2] = target: VEGF (species and construct not stated); assay: cell-based or functional assay
VEGF (species and construct not stated), sequence (P15692 whole entry): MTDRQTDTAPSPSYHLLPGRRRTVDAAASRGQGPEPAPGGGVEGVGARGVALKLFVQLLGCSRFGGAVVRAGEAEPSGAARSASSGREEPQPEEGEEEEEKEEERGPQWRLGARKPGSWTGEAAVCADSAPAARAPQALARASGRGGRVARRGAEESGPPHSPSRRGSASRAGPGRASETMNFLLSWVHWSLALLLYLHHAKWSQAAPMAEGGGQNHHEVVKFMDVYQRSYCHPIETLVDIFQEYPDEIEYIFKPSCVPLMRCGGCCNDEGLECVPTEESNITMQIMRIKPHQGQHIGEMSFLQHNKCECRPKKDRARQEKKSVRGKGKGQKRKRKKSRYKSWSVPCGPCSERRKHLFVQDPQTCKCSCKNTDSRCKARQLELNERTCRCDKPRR

[3] = target: T2, monkey PD-1 (ACRO, His tag) (monkey, UniProt B0LAJ3 25-170); assay: ELISA, monkey PD-1-His coated at 1 ug/mL, anti-human IgG Fc detection, OD450
T2 construct: Bought protein
T2 sequence (B0LAJ3 entry or part of it limits assumed, form in doubt): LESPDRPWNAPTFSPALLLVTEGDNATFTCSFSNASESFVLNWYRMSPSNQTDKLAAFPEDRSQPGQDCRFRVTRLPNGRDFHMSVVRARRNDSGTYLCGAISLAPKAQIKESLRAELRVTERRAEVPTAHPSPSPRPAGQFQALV
Experimental: The binding of candidate molecules and competitor to antigens of different species was detected by ELISA. […] The binding of antibodies to monkey PD-1 was detected by ELISA. An ELISA plate was coated with 1 μg/mL monkey PD-1 (ACRO, His tag) overnight and blocked. Subsequently, the plate was added with gradient dilutions of the sample to be tested and the control antibody, incubated and washed. Then, the plate was added with HRP-labeled anti-human IgG Fc secondary antibody, incubated and washed. After TMB solution was added for color development, the OD450 absorbance value was read on a microplate reader (see Table 15).

[4] = target: T3, human VEGF (ACRO, His tag) (human, UniProt P15692-4 27-191, limits assumed); assay: ELISA, human VEGF-His coated at 50 ng/ml, anti-human IgG Fc detection, OD450
T3 construct: Bought protein; not shown: His tag
T3 sequence (P15692 other isoform, or with tags, fused parts or gaps limits assumed): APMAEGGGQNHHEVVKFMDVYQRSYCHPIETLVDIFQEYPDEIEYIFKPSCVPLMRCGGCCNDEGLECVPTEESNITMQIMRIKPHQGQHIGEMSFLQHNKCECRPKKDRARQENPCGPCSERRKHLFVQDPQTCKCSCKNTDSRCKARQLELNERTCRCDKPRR

[5] = target: T1, human PD-1 (ACRO, His tag); assay: ELISA, human PD-1-His coated at 1 ug/mL, anti-human IgG Fc detection, OD450
Experimental: The binding of the antibody to human PD-1 was detected by ELISA. 1 μg/mL human PD-1 (ACRO, His tag) was coated on an ELISA plate overnight and blocked. Subsequently, the plate was added with gradient dilutions of the bispecific antibody and the control antibody, incubated and washed. Then, the plate was added with HRP-labeled anti-human IgG Fc secondary antibody, incubated and washed. After TMB solution was added for color development, the OD450 absorbance value was read on a microplate reader (see Table 12). […] Subsequently, the plate was added with gradient dilutions of the sample to be tested and the control antibody, incubated and washed. Then, the plated was added with HRP-labeled anti-human IgG Fc secondary antibody, incubated and washed. After TMB solution was added for color development, the OD450 absorbance value was read on a microplate reader (see Table 13). […] (The control substances were all obtained by in-house expression and purification)

T1 sequence (Q15116 25-167 limits assumed): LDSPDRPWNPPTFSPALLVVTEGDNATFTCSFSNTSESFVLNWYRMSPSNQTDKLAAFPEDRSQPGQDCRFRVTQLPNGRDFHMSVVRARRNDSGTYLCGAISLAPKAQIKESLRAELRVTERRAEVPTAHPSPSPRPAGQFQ

B1: #16 bispecific antibody targeting PD-1 and VEGF (bispecific antibody, human IgG1, kappa)
heavy: QVQLVQSGVEVKKPGASVKVSCKASGYTFTNYYMYWVRQAPGQGLEWMGGINPSNGGTNFNEKFKNRVTLTTDSSTTTAYMELKSLQFDDTAVYYCARRDYRFDMGFDYWGQGTTVTVSSASTKGPSVFPLAPSSKSTSGGTAALGCLVKDYFPEPVTVSWNSGALTSGVHTFPAVLQSSGLYSLSSVVTVPSSSLGTQTYICNVNHKPSNTKVDKKVEPKSCDKTHTCPPCPAPEAEGAPSVFLFPPKPKDTLMISRTPEVTCVVVDVSHEDPEVKFNWYVDGVEVHNAKTKPREEQYNSTYRVVSVLTVLHQDWLNGKEYKCKVSNKALPSSIEKTISKAKGQPREPQVYTLPPSREEMTKNQVSLTCLVKGFYPSDIAVEWESNGQPENNYKTTPPVLDSDGSFFLYSKLTVDKSRWQQGNVFSCSVMHEALHNHYTQKSLSLSPGEVQLLESGGGLVQPGGSLRLSCAASGFTFSTSTMSWYRQAPGKERELVSFITSAGATTYYADSVKGRFTMSRDNSKNTVYLQMNSLRAEDTAVYYCRALVTLWNVYWGQGTLVTVSS
light: EIVLTQSPATLSLSPGERATLSCRASKGVSTSGYSYLHWYQQKPGQAPRLLIYLASYLESGVPARFSGSGSGTDFTLTISSLEPEDFAVYYCQHSRDLPLTFGGGTKVEIKRTVAAPSVFIFPPSDEQLKSGTASVVCLLNNFYPREAKVQWKVDNALQSGNSQESVTEQDSKDSTYSLSSTLTLSKADYEKHKVYACEVTHQGLSSPVTKSFNRGEC
notes: Valence is 2+2
TOP OD [1]: 3.65 OD
maximum inhibition rate of HUVEC proliferation [2]: ~60%
TOP OD [3]: 3.38 OD
TOP OD [4]: 1.75 OD
TOP OD [5]: 2.58 OD

B2: Strain #48 VHH (Fc fusion)
chain: EVQLLESGGGLVQPGGSLRLSCAASGFTFSTSTMSWYRQAPGKERELVSFITSAGATTYYADSVKGRFTMSRDNSKNTVYLQMNSLRAEDTAVYYCRALVTLWNVYWGQGTLVTVSS
notes: Humanized variant of #6 (Q1E+Q5L+A49S+N58Y+D65G+D74S+V(82B)S+K83R+P84A+M89V+Q108L, Kabat); not shown: A printed molecular weight of 76.46 kD and detection by anti-human IgG Fc p
TOP OD [4]: 3.09 OD

From US20250145701A1 (REMEGEN SHANGHAI, published 2025)
